The target in this series is T1, TCP4 N-terminal fragment (pRSETC-TCP4-1, TCP4-N224) (Arabidopsis thaliana, UniProt Q8LPR5 1-224).
T1 sequence: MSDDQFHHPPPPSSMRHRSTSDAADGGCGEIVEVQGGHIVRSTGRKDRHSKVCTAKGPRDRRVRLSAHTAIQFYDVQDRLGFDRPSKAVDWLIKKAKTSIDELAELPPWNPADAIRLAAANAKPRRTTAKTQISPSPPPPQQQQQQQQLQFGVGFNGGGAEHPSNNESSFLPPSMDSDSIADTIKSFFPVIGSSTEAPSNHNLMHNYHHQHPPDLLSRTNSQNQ
Briefly: EMSA; 20 mM HEPES-KOH pH 7.8, 100 mM KCl, 1 mM EDTA, 0.1% BSA, 10 ng herring sperm DNA, 10% glycerol, ~10 fmol probe, 5-100 ng protein in 10 ul, 30 min room temperature; 6% native gel, 0.5x TBE. To be noted: protein: recombinant; tags: His; chain copies: 2; label: 32P-dCTP (Klenow) as probe. For orientation: Mobility shift assays separate free from complexed probe on a gel.

The record followed here is article PMC2553836, “Control of Jasmonate Biosynthesis and Senescence by miR319 Targets”.

B1: TCP4 consensus wild type (dsDNA)
DNA 1: AGATGGGGGACCACATAGATGT
DNA 2: ACATCTATGTGGTCCCCCATCT
On to B1, for which the binding result was “binds”.
